In patent US20110201109:

Molecular target: Ronin (protein product of the cDNA clone from the human ES cell cDNA expression library) (UniProt Q96EK4)
Sequence of UniProt Q96EK4 (Q96EK4 whole entry): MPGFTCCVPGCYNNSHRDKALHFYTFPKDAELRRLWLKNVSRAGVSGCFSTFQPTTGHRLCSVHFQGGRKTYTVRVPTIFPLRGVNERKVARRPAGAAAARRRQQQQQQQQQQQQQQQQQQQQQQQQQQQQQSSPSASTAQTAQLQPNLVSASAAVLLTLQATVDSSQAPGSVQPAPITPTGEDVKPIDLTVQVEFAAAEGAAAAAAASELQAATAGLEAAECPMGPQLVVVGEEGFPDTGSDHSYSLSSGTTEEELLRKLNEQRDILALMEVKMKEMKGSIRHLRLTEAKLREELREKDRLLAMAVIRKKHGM

Substance: Caspase-3 (as used in the in vitro transcription/translation Caspase-3 cleavage assay)
- in vitro transcription/translation Caspase-3 cleavage assay: proved to be an authentic target of Caspase-3 in further analyses
